Drawing on PMC9491720 (Science Advances, 2022), this text covers Kd for one molecule.

The target of this experiment is Flag-tagged PKM2 (pyruvate kinase M2) (human, UniProt P14618-1 1-531, labeled with fluorescence (in the MST assay only)). As to the kind of experiment: MST.
Chain of Flag-tagged PKM2 (pyruvate kinase M2) (P14618 whole entry): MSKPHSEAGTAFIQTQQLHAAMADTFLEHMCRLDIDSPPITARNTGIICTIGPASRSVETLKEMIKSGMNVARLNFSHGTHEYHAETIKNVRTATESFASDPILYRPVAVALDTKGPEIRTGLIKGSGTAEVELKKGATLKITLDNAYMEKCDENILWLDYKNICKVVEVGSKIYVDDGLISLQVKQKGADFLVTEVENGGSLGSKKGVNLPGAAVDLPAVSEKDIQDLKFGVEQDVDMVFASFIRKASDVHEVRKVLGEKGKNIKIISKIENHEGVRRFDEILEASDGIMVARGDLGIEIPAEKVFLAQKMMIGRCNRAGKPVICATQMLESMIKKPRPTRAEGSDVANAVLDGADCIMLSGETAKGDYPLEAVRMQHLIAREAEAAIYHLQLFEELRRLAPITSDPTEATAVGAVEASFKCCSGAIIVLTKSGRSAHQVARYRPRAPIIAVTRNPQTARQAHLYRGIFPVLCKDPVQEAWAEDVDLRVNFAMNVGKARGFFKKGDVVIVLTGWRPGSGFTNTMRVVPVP

B1: recombinant His-tagged Smad7 (natural protein)
chain: MFRTKRSALVRRLWRSRAPGGEDEEEGAGGGGGGGELRGEGATDSRAHGAGGGGPGRAGCCLGKAVRGAKGHHHPHPPAAGAGAAGGAEADLKALTHSVLKKLKERQLELLLQAVESRGGTRTACLLLPGRLDCRLGPGAPAGAQPAQPPSSYSLPLLLCKVFRWPDLRHSSEVKRLCCCESYGKINPELVCCNPHHLSRLCELESPPPPYSRYPMDFLKPTADCPDAVPSSAETGGTNYLAPGGLSDSQLLLEPGDRSHWCVVAYWEEKTRVGRLYCVQEPSLDIFYDLPQGNGFCLGQLNSDNKSQLVQKVRSKIGCGIQLTREVDGVWVYNRSSYPIFIKSATLDNPDSRTLLVHKVFPGFSIKAFDYEKAYSLQRPNDHEFMQQPWTGFTVQISFVKGWGQCYTRQFISSCPCWLEVIFNSR
One may read the Kd as the concentration at which binding is half-saturated. A high value points to weaker binding. In the case of B1, binding was put at a Kd of 0.346 µM.
